From patent US20180360932A1 (OPKO BIOLOGICS, published 2018)

Key:
[1] = biological target: NovoSeven (commercial recombinant human FVIIa) (human) (UniProt P08709); experiment: cell-based or functional assay
[2] = biological target: MOD-5014 (FVIIa-CTP3, activated Factor VII-CTP-CTP-CTP) (human) (UniProt P08709); experiment: cell-based or functional assay

% Inhibition of clotting activity, AT 1.050 ng/mL [1]: 21% | % Inhibition of clotting activity, AT 105 ng/mL [1]: 20% | % Inhibition of clotting activity, AT 10,500 ng/mL [1]: 30% | % Inhibition of clotting activity, AT 525000 ng/mL [1]: 100% | Activity (mU/mL), clotting assay, AT 0 ng/mL (no inhibitor) [1]: 88.1 mU/mL | Activity (mU/mL), clotting assay, AT 1.050 ng/mL [1]: 69.5 mU/mL | Activity (mU/mL), clotting assay, AT 10.5 ng/mL [1]: 68.4 mU/mL | Activity (mU/mL), clotting assay, AT 105 ng/mL [1]: 70.2 mU/mL | Activity (mU/mL), clotting assay, AT 1,050 ng/mL [1]: 66.8 mU/mL | Activity (mU/mL), clotting assay, AT 10,500 ng/mL [1]: 61.5 mU/mL | Activity (mU/mL), clotting assay, AT 105000 ng/mL [1]: 30.6 mU/mL | Activity (mU/mL), clotting assay, AT 525000 ng/mL [1]: 0 mU/mL | O.D, FX activation by NovoSeven (0.7 ng/ml), AT 0.16 µg/ml [1]: 1.23 O.D | O.D, FX activation by NovoSeven (0.7 ng/ml), AT 4 µg/ml [1]: 1.17 O.D | O.D, FX activation by NovoSeven (0.7 ng/ml), AT 20 µg/ml [1]: 1.15 O.D | O.D, FX activation by NovoSeven (0.7 ng/ml), AT 100 µg/ml [1]: 1.14 O.D | O.D, FX activation by NovoSeven (0.7 ng/ml), AT 500 µg/ml [1]: 0.933 O.D | O.D, FX activation by NovoSeven (0.7 ng/ml), AT 1680 µg/ml [1]: 0.784 O.D | O.D, FX activation by NovoSeven (0.7 ng/ml), control (no AT) [1]: 1.28 O.D | O.D., FX activation by NovoSeven (0.7 ng/ml) with 1 U/µl heparin, AT 0.032 µg/ml [1]: 1.16 O.D. | O.D., FX activation by NovoSeven (0.7 ng/ml) with 1 U/µl heparin, AT 0.16 µg/ml [1]: 1.19 O.D. | O.D., FX activation by NovoSeven (0.7 ng/ml) with 1 U/µl heparin, AT 0.8 µg/ml [1]: 1.22 O.D. | O.D., FX activation by NovoSeven (0.7 ng/ml) with 1 U/µl heparin, AT 4 µg/ml [1]: 1.17 O.D. | O.D., FX activation by NovoSeven (0.7 ng/ml) with 1 U/µl heparin, AT 20 µg/ml [1]: 1.04 O.D. | O.D., FX activation by NovoSeven (0.7 ng/ml) with 1 U/µl heparin, AT 100 µg/ml [1]: 0.503 O.D. | O.D., FX activation by NovoSeven (0.7 ng/ml) with 1 U/µl heparin, AT 500 µg/ml [1]: 0.201 O.D. | O.D., FX activation by NovoSeven (0.7 ng/ml) with 1 U/µl heparin, AT 1680 µg/ml [1]: 0.141 O.D. | O.D., FX activation by NovoSeven (0.7 ng/ml), AT III constant 20 µg/ml, heparin 0.002 U/µl [1]: 1.24 O.D. | O.D., FX activation by NovoSeven (0.7 ng/ml), AT III constant 20 µg/ml, heparin 0.01 U/µl [1]: 1.2 O.D. | O.D., FX activation by NovoSeven (0.7 ng/ml), AT III constant 20 µg/ml, heparin 0.25 U/µl [1]: 1.04 O.D. | O.D., FX activation by NovoSeven (0.7 ng/ml), AT III constant 20 µg/ml, heparin 1.25 U/µl [1]: 0.98 O.D. | O.D., FX activation by NovoSeven (0.7 ng/ml), AT III constant 20 µg/ml, heparin 6.25 U/µl [1]: 1 O.D. | O.D., FX activation by NovoSeven (0.7 ng/ml), Control [1]: 1.43 O.D. | % Inhibition of clotting activity, AT 1.050 ng/mL [2]: 25% | % Inhibition of clotting activity, AT 10.5 ng/mL [2]: 28% | % Inhibition of clotting activity, AT 105 ng/mL [2]: 25% | % Inhibition of clotting activity, AT 10,500 ng/mL [2]: 25% | % Inhibition of clotting activity, AT 105000 ng/mL [2]: 62% | % Inhibition of clotting activity, AT 525000 ng/mL [2]: 100% | Activity (mU/mL), clotting assay, AT 0 ng/mL (no inhibitor) [2]: 70.8 mU/mL | Activity (mU/mL), clotting assay, AT 1.050 ng/mL [2]: 52.9 mU/mL | Activity (mU/mL), clotting assay, AT 10.5 ng/mL [2]: 50.7 mU/mL | Activity (mU/mL), clotting assay, AT 105 ng/mL [2]: 53.3 mU/mL | Activity (mU/mL), clotting assay, AT 1,050 ng/mL [2]: 53.4 mU/mL | Activity (mU/mL), clotting assay, AT 10,500 ng/mL [2]: 53 mU/mL | Activity (mU/mL), clotting assay, AT 105000 ng/mL [2]: 27 mU/mL | Activity (mU/mL), clotting assay, AT 525000 ng/mL [2]: 0 mU/mL | O.D, FX activation by MOD-5014 (0.7 ng/ml), AT 0.16 µg/ml [2]: 1.18 O.D | O.D, FX activation by MOD-5014 (0.7 ng/ml), AT 0.8 µg/ml [2]: 1.07 O.D | O.D, FX activation by MOD-5014 (0.7 ng/ml), AT 4 µg/ml [2]: 1.14 O.D | O.D, FX activation by MOD-5014 (0.7 ng/ml), AT 20 µg/ml [2]: 1.11 O.D | O.D, FX activation by MOD-5014 (0.7 ng/ml), AT 100 µg/ml [2]: 0.974 O.D | O.D, FX activation by MOD-5014 (0.7 ng/ml), AT 500 µg/ml [2]: 0.975 O.D | O.D, FX activation by MOD-5014 (0.7 ng/ml), AT 1680 µg/ml [2]: 0.656 O.D | O.D, FX activation by MOD-5014 (0.7 ng/ml), control (no AT) [2]: 1.09 O.D | O.D., FX activation by MOD-5014 (0.7 ng/ml) with 1 U/µl heparin, AT 0.032 µg/ml [2]: 1.24 O.D. | O.D., FX activation by MOD-5014 (0.7 ng/ml) with 1 U/µl heparin, AT 0.16 µg/ml [2]: 1.24 O.D. | O.D., FX activation by MOD-5014 (0.7 ng/ml) with 1 U/µl heparin, AT 0.8 µg/ml [2]: 1.25 O.D. | O.D., FX activation by MOD-5014 (0.7 ng/ml) with 1 U/µl heparin, AT 4 µg/ml [2]: 1.26 O.D. | O.D., FX activation by MOD-5014 (0.7 ng/ml) with 1 U/µl heparin, AT 20 µg/ml [2]: 1.08 O.D. | O.D., FX activation by MOD-5014 (0.7 ng/ml) with 1 U/µl heparin, AT 100 µg/ml [2]: 0.404 O.D. | O.D., FX activation by MOD-5014 (0.7 ng/ml) with 1 U/µl heparin, AT 500 µg/ml [2]: 0.153 O.D. | O.D., FX activation by MOD-5014 (0.7 ng/ml) with 1 U/µl heparin, AT 1680 µg/ml [2]: 0.197 O.D. | O.D., FX activation by MOD-5014 (0.7 ng/ml), AT III constant 20 µg/ml, heparin 0.002 U/µl [2]: 1.29 O.D. | O.D., FX activation by MOD-5014 (0.7 ng/ml), AT III constant 20 µg/ml, heparin 0.01 U/µl [2]: 1.14 O.D. | O.D., FX activation by MOD-5014 (0.7 ng/ml), AT III constant 20 µg/ml, heparin 0.25 U/µl [2]: 0.917 O.D. | O.D., FX activation by MOD-5014 (0.7 ng/ml), AT III constant 20 µg/ml, heparin 1.25 U/µl [2]: 0.896 O.D. | O.D., FX activation by MOD-5014 (0.7 ng/ml), AT III constant 20 µg/ml, heparin 6.25 U/µl [2]: 1.02 O.D. | O.D., FX activation by MOD-5014 (0.7 ng/ml), Control [2]: 1.41 O.D.
Substance: Anti thrombin III (ATIII) (from UniProt P01008 33-464)
